# B1: Luc-KD (KD–IDL of Polo, amino acids 1–349, N-terminally fused to RLucII), KD^WT [Drosophila] / PBD–GFP (PBD of Polo, amino acids 350–576, C-terminally fused to GFP10) [Drosophila] (parent)
# chain 1: MAAKPEDKSTDIPDRLVDINQRKTYKRMRFFGKGGFAKCYEIIDVETDDVFAGKIVSKKLMIKHNQKEKTAQEITIHRSLNHPNIVKFHNYFEDSQNIYIVLELCKKRSMMELHKRRKSITEFECRYYIYQIIQGVKYLHDNRIIHRDLKLGNLFLNDLLHVKIGDFGLATRIEYEGERKKTLCGTPNYIAPEILTKKGHSFEVDIWSIGCVMYTLLVGQPPFETKTLKDTYSKIKKCEYRVPSYLRKPAADMVIAMLQPNPESRPAIGQLLNFEFLKGSKVPMFLPSSCLTMAPRIGSNDTIEDSMHRKPLMEMNGIRPDDTRLESTFLKANLHDAITASAQVCRHSE
# chain 2: DYRSDIESLYQQLTNLINGKPRILQGNLGDENTDPAAQPLFWISKWVDYSDKYGFGYQLCDEGIGVMFNDTTKLILLPNQINVHFIDKDGKETYMTTTDYCKSLDKKMKLLSYFKRYMIEHLVKAGANNVNIESDQISRMPHLHSWFRTTCAVVMHLTNGSVQLNFSDHMKLILCPRMSAITYMDQEKNFRTYRFSTIVENGVSKDLYQKIRYAQEKLRKMLEKMFT
# Variants of: B1
# Assay: BRET
# Settings: with PBD–GFP (PBD of Polo, amino acids 350–576, C-terminally fused to GFP10) [Drosophila]; live HEK293T cells; fixed amount of Luc-KD vector, increasing PBD–GFP vector; Map205 fragment co-transfected; p-value 0.0374; parent: 0.197
row,Variant,screen value [GFP/Luc]
1,chain 1 T182D,0.412

# Same assay, conditions: with PBD–GFP (PBD of Polo, amino acids 350–576, C-terminally fused to GFP10) [Drosophila]; live HEK293T cells; fixed amount of Luc-KD vector, increasing PBD–GFP vector; Map205 fragment co-transfected; p-value 0.4037; parent: 0.197
row,Variant,screen value [GFP/Luc]
1,chain 1 T182A,0.148
